From US20150258192A1, “COMPOSITIONS AND METHODS FOR PREVENTING OR TREATING CHRONIC LUNG ALLOGRAFT DYSFUNCTION (CLAD) AND IDIOPATHIC PULMONARY FIBROSIS (IPF)” (priority 2014, published 2015)
No end group written: not given here.

What was measured:
Assay in all cases: Kinase Profiling Assay
Format in all cases: biochemical
Settings in all cases: peptide 100 μM
ErbB4(h) = ErbB4(h) (Homo sapiens, UniProt Q15303)
Method: (§1) Every kinase activity measurement was conducted in duplicate.
(§2) Specifically, in these assays, a positively charged substrate is phosphorylated with a radiolabeled phosphate group from an ATP if the kinase is not inhibited by an inhibitor peptide. The positively charged substrate then is attracted to a negatively charged filter membrane, quantified with a scintillation counter, and compared to a 100% activity control.
(§3) In addition to determining the IC50 of the compound, the specificity of MK2 inhibitory peptides was assessed by examining activities of all 266 human kinases available for testing in the Millipore kinase profiling service (Table 1).

EphB2(h) = molecular target: T1, EphB2(h) (Homo sapiens, UniProt P29323)
T1 sequence (P29323 19-1055): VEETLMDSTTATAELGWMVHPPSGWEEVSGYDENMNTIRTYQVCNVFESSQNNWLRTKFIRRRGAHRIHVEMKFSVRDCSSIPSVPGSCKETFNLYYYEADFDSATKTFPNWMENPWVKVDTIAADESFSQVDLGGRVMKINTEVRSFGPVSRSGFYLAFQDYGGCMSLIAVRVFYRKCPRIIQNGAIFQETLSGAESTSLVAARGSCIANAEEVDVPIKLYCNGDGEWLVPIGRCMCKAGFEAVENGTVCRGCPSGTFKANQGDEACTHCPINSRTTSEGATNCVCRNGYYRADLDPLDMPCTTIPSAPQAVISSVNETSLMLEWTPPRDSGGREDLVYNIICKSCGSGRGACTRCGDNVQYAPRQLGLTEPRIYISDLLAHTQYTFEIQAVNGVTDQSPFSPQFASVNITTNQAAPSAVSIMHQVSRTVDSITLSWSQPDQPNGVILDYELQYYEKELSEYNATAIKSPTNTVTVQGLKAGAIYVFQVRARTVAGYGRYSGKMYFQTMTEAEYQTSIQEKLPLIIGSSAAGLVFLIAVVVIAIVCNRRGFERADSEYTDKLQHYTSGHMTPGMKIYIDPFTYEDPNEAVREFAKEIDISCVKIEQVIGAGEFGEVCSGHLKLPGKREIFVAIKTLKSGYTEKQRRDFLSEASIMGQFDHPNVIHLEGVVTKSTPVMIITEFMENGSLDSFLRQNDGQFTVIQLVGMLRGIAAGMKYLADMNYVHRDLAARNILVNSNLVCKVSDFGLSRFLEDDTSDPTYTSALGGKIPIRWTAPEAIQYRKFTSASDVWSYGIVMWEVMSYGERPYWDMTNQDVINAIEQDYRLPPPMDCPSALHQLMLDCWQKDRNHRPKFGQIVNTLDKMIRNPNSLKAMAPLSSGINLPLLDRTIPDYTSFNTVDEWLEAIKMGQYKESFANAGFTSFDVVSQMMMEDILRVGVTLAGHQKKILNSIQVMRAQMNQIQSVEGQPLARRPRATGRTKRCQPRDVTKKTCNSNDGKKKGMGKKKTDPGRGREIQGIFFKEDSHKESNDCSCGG
Method: as §1, §2, §3

MAPK2(h) = molecular target: T2, MAPK2(h) (Homo sapiens, UniProt P28482)
T2 construct: purchased Millipore
T2 sequence (P28482 whole entry): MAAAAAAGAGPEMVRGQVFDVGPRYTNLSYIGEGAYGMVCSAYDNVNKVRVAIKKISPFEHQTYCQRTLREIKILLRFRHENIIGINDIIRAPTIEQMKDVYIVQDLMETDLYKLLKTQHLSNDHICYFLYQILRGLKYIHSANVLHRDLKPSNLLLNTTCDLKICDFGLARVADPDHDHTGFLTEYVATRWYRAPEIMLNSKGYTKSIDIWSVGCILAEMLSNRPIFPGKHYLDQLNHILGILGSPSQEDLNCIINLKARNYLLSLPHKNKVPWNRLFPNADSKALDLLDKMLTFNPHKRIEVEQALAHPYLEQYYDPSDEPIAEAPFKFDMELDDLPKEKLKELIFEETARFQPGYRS
Method: as §1, §2, §3

SAPK2a(T106M)(h) = molecular target: T3, SAPK2a(T106M)(h) (Homo sapiens, UniProt Q16539, T106M)
T3 construct: purchased Millipore
T3 sequence (Q16539 whole entry T106M): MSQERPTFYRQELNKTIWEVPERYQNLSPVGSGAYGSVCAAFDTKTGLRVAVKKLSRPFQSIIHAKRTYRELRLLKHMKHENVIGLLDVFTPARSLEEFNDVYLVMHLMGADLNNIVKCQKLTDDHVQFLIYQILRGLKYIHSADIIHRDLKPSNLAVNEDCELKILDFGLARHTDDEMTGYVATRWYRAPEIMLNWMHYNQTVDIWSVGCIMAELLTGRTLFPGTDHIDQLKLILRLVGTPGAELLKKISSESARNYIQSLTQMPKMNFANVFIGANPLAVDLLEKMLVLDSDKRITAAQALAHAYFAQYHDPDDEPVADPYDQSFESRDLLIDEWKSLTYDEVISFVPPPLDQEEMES
Method: as §1, §2, §3

PKCθ(h) = PKCθ(h) (Homo sapiens, UniProt Q04759)
Chain of PKCθ(h) (Q04759 whole entry): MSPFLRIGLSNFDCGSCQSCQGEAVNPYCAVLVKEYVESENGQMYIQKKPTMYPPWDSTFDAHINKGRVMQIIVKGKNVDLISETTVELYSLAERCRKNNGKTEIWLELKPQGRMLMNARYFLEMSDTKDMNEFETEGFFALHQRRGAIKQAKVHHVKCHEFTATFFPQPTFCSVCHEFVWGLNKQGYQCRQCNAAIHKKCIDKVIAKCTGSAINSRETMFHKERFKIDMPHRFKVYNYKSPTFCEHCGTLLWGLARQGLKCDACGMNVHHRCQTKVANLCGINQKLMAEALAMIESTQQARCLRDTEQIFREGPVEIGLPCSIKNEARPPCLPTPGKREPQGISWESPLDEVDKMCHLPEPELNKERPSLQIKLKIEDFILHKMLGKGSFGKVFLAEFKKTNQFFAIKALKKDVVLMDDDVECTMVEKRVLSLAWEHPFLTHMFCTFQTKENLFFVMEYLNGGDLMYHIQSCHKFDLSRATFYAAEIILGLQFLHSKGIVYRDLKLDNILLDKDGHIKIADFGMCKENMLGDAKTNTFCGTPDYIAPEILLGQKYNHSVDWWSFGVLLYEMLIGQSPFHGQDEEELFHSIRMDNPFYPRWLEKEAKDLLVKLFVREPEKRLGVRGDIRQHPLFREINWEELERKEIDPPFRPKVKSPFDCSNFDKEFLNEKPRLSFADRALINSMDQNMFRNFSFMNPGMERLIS
Method: as §1, §2, §3

CDK1/cyclinB(h) = CDK1/cyclinB(h) (Homo sapiens, UniProt P06493)
Chain of CDK1/cyclinB(h) (P06493 whole entry): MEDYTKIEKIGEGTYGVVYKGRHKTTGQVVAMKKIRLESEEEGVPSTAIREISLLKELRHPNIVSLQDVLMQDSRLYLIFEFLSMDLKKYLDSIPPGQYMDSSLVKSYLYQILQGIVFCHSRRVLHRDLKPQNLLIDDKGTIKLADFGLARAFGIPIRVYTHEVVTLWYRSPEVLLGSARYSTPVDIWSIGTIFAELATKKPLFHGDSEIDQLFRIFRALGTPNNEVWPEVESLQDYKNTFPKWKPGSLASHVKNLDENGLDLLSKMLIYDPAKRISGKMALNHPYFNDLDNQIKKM
Chain of CDK1/cyclinB(h) (P14635 whole entry partner): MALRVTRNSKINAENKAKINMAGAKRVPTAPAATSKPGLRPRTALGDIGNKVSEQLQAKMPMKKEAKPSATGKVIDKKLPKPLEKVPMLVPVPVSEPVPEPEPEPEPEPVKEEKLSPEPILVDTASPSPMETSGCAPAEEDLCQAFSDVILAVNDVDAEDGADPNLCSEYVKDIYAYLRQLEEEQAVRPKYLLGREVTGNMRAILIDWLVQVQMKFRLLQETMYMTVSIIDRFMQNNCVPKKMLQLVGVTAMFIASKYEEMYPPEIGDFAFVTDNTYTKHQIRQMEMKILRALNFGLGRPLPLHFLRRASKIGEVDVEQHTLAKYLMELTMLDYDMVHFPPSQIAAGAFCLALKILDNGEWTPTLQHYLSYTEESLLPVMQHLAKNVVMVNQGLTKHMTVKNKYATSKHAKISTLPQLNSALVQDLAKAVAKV
Method: as §1, §2, §3

GRK7(h) = molecular target: T4, GRK7(h) (Homo sapiens, UniProt Q8WTQ7)
T4 construct: purchased Millipore
T4 sequence (Q8WTQ7 1-553): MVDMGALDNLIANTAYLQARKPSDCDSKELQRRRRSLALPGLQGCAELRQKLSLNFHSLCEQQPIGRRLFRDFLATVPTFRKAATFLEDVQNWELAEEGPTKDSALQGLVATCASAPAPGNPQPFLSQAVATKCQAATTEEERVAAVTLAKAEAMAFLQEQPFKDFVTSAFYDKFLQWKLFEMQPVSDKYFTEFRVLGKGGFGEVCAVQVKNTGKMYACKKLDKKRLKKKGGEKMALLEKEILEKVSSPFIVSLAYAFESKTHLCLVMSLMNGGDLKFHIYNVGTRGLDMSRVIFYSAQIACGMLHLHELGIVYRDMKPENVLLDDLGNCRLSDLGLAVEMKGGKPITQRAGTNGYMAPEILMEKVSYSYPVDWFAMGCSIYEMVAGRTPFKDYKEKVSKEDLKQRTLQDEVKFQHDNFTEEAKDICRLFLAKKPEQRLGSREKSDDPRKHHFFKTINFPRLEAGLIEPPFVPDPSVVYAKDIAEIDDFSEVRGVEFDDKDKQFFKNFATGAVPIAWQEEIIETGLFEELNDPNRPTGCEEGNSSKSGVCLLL
Method: as §1, §2, §3

DAPK2(h) = DAPK2(h) (Homo sapiens, UniProt Q9UIK4)
Chain of DAPK2(h) (Q9UIK4 whole entry): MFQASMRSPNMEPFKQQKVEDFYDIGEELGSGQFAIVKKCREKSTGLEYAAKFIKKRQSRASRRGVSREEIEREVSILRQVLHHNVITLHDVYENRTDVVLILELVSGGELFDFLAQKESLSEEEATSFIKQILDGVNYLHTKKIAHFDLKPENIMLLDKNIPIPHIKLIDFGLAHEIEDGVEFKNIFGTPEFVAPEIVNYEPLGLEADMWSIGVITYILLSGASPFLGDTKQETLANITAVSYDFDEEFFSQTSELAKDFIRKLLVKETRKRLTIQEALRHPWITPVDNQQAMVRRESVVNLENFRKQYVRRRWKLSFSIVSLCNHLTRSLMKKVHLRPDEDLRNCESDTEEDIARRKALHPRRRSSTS
Method: as §1, §2, §3

Flt3(D835Y)(h) = Flt3(D835Y)(h) (Homo sapiens, UniProt P36888, D835Y)
Method: as §1, §2, §3

PDGFRα(h) = PDGFRα(h) (Homo sapiens, UniProt P16234)
Chain of PDGFRα(h) (P16234 24-1089): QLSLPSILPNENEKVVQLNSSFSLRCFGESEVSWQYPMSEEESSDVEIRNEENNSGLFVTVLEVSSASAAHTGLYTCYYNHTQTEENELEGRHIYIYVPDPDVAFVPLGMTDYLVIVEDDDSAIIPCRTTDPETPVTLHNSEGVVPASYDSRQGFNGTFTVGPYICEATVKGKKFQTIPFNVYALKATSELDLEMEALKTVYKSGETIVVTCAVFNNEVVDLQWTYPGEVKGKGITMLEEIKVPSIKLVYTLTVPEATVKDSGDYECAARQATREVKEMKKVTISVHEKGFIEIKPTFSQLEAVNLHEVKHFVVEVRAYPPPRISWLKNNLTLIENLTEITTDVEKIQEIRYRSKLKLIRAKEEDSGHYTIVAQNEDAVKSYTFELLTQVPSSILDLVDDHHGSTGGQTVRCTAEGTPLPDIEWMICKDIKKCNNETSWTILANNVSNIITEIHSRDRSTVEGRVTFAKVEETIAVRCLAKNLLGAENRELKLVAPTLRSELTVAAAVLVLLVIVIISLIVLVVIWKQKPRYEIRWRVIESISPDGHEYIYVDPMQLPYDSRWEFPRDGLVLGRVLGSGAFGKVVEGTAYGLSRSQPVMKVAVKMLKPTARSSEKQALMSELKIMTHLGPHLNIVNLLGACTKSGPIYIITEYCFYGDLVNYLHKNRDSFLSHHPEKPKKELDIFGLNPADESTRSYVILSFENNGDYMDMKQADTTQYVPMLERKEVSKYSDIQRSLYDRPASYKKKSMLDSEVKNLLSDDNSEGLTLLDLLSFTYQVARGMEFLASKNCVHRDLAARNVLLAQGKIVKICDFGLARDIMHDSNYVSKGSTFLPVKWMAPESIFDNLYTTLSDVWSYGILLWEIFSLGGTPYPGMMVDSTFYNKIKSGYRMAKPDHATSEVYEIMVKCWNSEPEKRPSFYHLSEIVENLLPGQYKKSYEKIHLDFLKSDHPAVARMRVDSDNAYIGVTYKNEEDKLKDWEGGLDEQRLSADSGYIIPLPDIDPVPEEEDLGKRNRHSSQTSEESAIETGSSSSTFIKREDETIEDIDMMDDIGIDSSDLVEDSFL
Method: as §1, §2, §3

Chain of ErbB4(h) (Q15303 26-1308): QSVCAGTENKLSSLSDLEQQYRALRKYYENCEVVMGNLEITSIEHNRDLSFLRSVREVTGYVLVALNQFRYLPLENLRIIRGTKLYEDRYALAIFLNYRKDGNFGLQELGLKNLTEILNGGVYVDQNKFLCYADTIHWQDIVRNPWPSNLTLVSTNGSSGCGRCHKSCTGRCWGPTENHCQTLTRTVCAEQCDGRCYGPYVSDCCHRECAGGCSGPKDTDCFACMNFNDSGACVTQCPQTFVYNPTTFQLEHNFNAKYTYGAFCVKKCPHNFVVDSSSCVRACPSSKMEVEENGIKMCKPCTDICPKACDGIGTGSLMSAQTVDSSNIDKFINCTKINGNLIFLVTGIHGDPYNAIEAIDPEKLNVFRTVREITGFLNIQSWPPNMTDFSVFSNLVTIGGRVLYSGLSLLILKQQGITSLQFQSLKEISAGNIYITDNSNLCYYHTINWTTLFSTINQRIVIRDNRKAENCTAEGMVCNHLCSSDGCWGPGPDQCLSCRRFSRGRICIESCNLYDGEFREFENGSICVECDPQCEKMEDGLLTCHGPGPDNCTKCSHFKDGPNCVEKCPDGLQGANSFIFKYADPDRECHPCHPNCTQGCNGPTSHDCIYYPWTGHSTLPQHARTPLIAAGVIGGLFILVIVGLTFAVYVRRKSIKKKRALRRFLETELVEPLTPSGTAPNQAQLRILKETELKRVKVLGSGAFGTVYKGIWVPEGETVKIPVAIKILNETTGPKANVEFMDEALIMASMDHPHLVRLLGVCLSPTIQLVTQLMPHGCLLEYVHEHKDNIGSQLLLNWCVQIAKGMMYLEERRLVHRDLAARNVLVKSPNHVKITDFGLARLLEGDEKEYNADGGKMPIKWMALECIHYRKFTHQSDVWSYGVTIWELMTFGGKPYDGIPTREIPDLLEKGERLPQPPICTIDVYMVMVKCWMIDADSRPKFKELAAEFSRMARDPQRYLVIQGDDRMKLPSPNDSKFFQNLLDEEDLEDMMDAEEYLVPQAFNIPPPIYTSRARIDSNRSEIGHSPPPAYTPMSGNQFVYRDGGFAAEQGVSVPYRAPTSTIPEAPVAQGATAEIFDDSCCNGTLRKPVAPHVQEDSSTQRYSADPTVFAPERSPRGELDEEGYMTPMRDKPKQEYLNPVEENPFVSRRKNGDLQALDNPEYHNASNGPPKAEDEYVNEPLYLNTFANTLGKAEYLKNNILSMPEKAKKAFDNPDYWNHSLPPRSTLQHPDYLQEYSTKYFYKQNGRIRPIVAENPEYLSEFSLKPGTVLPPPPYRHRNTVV

Row | Sequence | % activity (ErbB4(h)) [%] | % activity (EphB2(h)) [%] | % activity (MAPK2(h)) [%] | % activity (SAPK2a(T106M)(h)) [%] | % activity (PKCθ(h)) [%] | % activity (CDK1/cyclinB(h)) [%] | % activity (GRK7(h)) [%] | % activity (DAPK2(h)) [%] | % activity (Flt3(D835Y)(h)) [%] | % activity (PDGFRα(h)) [%]
1 | FAKLAARLYRKALARQLGVAA [MMI-0300] | 40 | 18 | 98 | 97 | 88 | 73 | 122 | 32 | 80 | 65
2 | HRRIKAWLKKIKALARQLGVAA (Mammal) [MMI-0500] | 2 | 70 | 60 | 32 | 62 | 57 | 93 | 3 | 65 | 40
3 | KAFAKLAARLYRKALARQLGVAA [MMI-0400] | 0 | 22 | 93 | 99 | 76 | 74 | 100 | 16 | 71 | 40
4 | YARAAARQARAKALARQLGVAA [MMI-0100] | 73 | 68 |  | 101 |  |  |  |  | 120 | 
5 | YARAAARQARAKALNRQLGVA (Mammal) [MMI-0200] | 82 | 128 |  | 100 | 101 |  | 124 | 92 |  | 108
